Assay results from patent US20250161474A1 (SICHUAN KELUN BIOTECH BIOPHARMACEUTICAL, published 2025).

How the values were obtained:
human c-MET [1] = target: T1, human c-MET (human, UniProt P08581 25-1390); test: cell-based or functional assay
human EGFR = target: T2, human EGFR (human, UniProt P00533 25-1210); test: flow cytometry on A431 cells (highly express EGFR)
T2 construct: whole, on cells; also called epidermal growth factor receptor; ErbB-1
Source text: (§1) A flow cytometer (Beckman, model Cytoflex) was used to detect the interaction between anti-human EGFR/c-MET bispecific antibodies and their conjugates and human gastric cancer cells MKN45 (Nanjing Cobioer Biosciences) and human gastric cancer cells overexpressing human EGFR MKN45-EGFR (Kelun-Biotech), human lung squamous cell carcinoma EBC-1 (Nanjing Cobioer Biosciences), human lung squamous cell carcinoma EBC-1-EGFR overexpressing human EGFR (Kelun-Biotech), human non-small cell lung cancer cell HCC827 (ATCC™), and human epidermal squamous cell carcinoma cell A431 (Nanjing Cobioer Biosciences). The protocol was as follows.
The adherent cells were digested with Trypsin-EDTA solution (0.25%) (Shanghai BasalMedia) and the cell density adjusted to 4.0×10⁶ per mL. The cells were washed twice with 1% BSA and resuspended in 1% BSA solution. Then 50 μL cell suspension was added to each well of a 96-well plate (the number of cells was 2×10⁵ per well). The antibody and its conjugate were diluted with 1% BSA (final concentration 10 µg/mL, 3-fold gradient dilution, a total of 11 concentration points). Then 50 μL of the diluted antibody and ADC were added to the wells of the 96-well plate and the plate was incubated at 4° C. for 60 minutes. […]

human c-MET [2] = target: T1, human c-MET; test: flow cytometry on MKN45 cells (highly express c-MET)
Source text: as §1
(§2) The adherent cells were digested with Trypsin-EDTA solution (0.25%) (Shanghai BasalMedia) and the cell density adjusted to 4.0×10⁶ per mL. The cells were washed twice with 1% BSA and resuspended in 1% BSA solution. Then 50 μL cell suspension was added to each well of a 96-well plate (the number of cells was 2×10⁵ per well). The antibody and its conjugate were diluted with 1% BSA (final concentration 10 µg/mL, 3-fold gradient dilution, a total of 11 concentration points). Then 50 μL of the diluted antibody and ADC were added to the wells of the 96-well plate and the plate was incubated at 4° C. for 60 minutes. The wells of the 96-well plate were then washed twice with 1% BSA, 50 μL of diluted secondary antibody was added to each well, and the 96-well plate was incubated at 4° C. for 30 minutes. Then the cells were washed twice with 1% BSA, and the cells were resuspended in 200 μL of 1% BSA and subjected to flow cytometry detection.

human c-MET [3] = target: T1, human c-MET; test: flow cytometry on EBC-1 cells (highly express c-MET)
Source text: as §1, §2

T1 sequence (P08581 25-1390): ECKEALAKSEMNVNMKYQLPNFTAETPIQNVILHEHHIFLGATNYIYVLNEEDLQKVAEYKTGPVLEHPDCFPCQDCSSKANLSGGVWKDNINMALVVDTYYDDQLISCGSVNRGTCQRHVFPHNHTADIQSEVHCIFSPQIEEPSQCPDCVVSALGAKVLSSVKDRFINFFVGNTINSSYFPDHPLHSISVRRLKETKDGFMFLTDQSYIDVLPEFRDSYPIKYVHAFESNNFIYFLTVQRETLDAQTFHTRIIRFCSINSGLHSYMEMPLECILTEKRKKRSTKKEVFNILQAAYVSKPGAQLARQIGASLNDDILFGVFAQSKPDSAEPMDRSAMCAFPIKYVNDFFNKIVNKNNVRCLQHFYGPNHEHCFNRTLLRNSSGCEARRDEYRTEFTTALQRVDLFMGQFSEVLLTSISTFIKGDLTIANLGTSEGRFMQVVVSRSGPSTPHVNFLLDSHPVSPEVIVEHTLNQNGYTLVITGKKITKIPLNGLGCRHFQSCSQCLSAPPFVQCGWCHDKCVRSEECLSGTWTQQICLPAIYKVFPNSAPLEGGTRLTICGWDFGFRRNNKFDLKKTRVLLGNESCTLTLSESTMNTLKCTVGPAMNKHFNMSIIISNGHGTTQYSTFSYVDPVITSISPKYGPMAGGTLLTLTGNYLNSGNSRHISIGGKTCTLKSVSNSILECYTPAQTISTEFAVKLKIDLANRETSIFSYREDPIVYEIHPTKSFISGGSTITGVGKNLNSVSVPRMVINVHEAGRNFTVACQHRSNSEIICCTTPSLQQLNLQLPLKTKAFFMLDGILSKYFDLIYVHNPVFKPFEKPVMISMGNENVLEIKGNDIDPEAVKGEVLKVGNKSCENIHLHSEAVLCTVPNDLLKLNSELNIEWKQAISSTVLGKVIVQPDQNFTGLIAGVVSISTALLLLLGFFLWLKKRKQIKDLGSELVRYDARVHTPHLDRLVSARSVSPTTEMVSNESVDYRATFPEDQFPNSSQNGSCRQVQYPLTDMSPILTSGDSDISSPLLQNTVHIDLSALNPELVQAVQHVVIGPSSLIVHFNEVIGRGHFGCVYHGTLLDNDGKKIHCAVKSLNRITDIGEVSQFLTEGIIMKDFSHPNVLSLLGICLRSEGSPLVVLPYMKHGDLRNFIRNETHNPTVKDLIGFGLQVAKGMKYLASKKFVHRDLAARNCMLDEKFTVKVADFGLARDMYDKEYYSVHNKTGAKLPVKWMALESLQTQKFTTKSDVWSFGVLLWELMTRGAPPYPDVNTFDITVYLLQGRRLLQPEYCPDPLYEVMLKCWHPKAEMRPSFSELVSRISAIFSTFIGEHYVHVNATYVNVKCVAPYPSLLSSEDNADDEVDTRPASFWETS

B1: ADC 41B-A-05 (bispecific antibody, human IgG1, kappa, L234A L235A)
light: not shown
heavy: not shown
chain: DIQMTQSPSSLSASVGDRVTITCKSSQSLLYTSSQKNYLAWYQQKPGKAPKLLIYWASTRESGVPSRFSGSGSGTDFTLTISSLQPEDFATYYCQQYYAYPWTFGCGTKVEIKRTVAAPSVFIFPPSDEQLKSGTASVVCLLNNFYPREAKVQWKVDNALQSGNSQESVTEQDSKDSTYSLSSTLTLSKADYEKHKVYACEVTHQGLSSPVTKSFNRGECGGGGSGGGGSGGGGSGGGGSGGGGSGGGGSGGGGSGGGGSEVQLVESGGGLVQPGGSLRLSCAASGYTFTSYWLHWVRQAPGKCLEWVGMIDPSNSDTRFNPNFKDRFTISADTSKNTAYLQMNSLRAEDTAVYYCATYRSYVTPLDYWGQGTLVTVSSASTKGPSVFPLAPSSKSTSGGTAALGCLVKDYFPEPVTVSWNSGALTSGVHTFPAVLQSSGLYSLSSVVTVPSSSLGTQTYICNVNHKPSNTKVDKKVEPKSCDKTHTCPPCPAPEAAGGPSVFLFPPKPKDTLMISRTPEVTCVVVDVSHEDPEVKFNWYVDGVEVHNAKTKPREEQYNSTYRVVSVLTVLHQDWLNGKEYKCKVSNKALAAPIEKTISKAKGQPREPQVCTLPPSRDELTKNQVSLSCAVKGFYPSDIAVEWESNGQPENNYKTTPPVLDSDGSFFLVSKLTVDKSRWQQGNVFSCSVMHEALHNHYTQKSLSLSPGK
modifications: linker-payload A-05 on reduced Cys sulfhydryls (sites not given); DAR of the whole ADC approximately 8
With B1 the “IC50, in vitro cell killing (CCK8) on EBC-1 cells” value (human c-MET [1]) was 0.44 nM, the “IC50, in vitro cell killing (CCK8) on MKN45 cells” value (human c-MET [1]) was 0.42 nM and the EC50 (human EGFR) was 0.48 nM. For the same binder, the EC50 (human c-MET [2]) was 0.69 nM.

B2: ADC 10B-A-05 (bispecific antibody, human IgG1, kappa)
light: not shown
heavy: not shown
chain: DIQMTQSPSSLSASVGDRVTITCKSSQSLLYTSSQKNYLAWYQQKPGKAPKLLIYWASTRESGVPSRFSGSGSGTDFTLTISSLQPEDFATYYCQQYYAYPWTFGQGTKVEIKGGGGSGGGGSGGGGSEVQLVESGGGLVQPGGSLRLSCAASGYTFTSYWLHWVRQAPGKGLEWVGMIDPSNSDTRFNPNFKDRFTISADTSKNTAYLQMNSLRAEDTAVYYCATYRSYVTPLDYWGQGTLVTVSSGGGGDKTHTCPPCPAPELLGGPSVFLFPPKPKDTLMISRTPEVTCVVVDVSHEDPEVKFNWYVDGVEVHNAKTKPREEQYNSTYRVVSVLTVLHQDWLNGKEYKCKVSNKALPAPIEKTISKAKGQPREPQVCTLPPSREEMTKNQVSLSCAVKGFYPSDIAVEWESNGQPENNYKTTPPVLDSDGSFFLVSKLTVDKSRWQQGNVFSCSVMHEALHNHYTQKSLSLSPGK
modifications: linker-payload A-05 on reduced Cys sulfhydryls (sites not given); DAR of the whole ADC approximately 6
For B2, the “IC50, in vitro cell killing (CCK8) on EBC-1 cells” value (human c-MET [1]) was 0.59 nM, the “IC50, in vitro cell killing (CCK8) on MKN45 cells” value (human c-MET [1]) was 0.33 nM and the EC50 (human c-MET [3]) was 1.91 nM. The EC50 (human c-MET [2]) was 2.14 nM.

B3: BsAb 41B (bispecific antibody, human IgG1, kappa, L234A L235A)
light: not shown
heavy: not shown
chain: B1 chain
notes: Fab-scFab-Fc (KIH) format; anti-EGFR Fab, anti-c-MET scFab; also called bispecific antibody 41B
B3 showed an EC50 (human EGFR) of 1.34 nM and an EC50 (human c-MET [2]) of 1.77 nM.
